Data from the nanobody polyreactivity screen of Harvey et al. (2022).

Assay: yeast display, Sf9 membrane polyspecificity reagent, FACS + sequencing; frameworks hold sequencing errors
In short: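 Genes from sorted yeast were amplified by colony PCR, read by MiSeq 2 × 250 sequencing and filtered on CDR length. These cells carried a synthetic nanobody library in Saccharomyces cerevisiae BJ5465 and were sorted by FACS into low and high (top ~1%) gates on anti-HA and streptavidin fluorescence. Polyreactivity is labelled according to the gate of origin.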

Sequence	polyreactivity (PSR sort gate)
QVQLVESGGGLVQAGGSLRLSCAASGSIFGYNAMGWYRQAPGKERELVAAITSSGGSTYNADSVKGRFTISRDNAKNTVYLQMNSLKPEDTAFYYCNSRDWYIVWYDYWGQGTQVTVSS	low polyreactivity
QVQLVESGGGLVQAGGSLRLSCAASGFTFGSNAMGWYRQAPGKERELVAAISSGDSTHYADSVKGRFTISRDNAQNTVYLQMNSLKPEDTAVYYCNADNILYWSTLDYWGQGTQVTVSS	low polyreactivity
QVQLVESGGGLVQAGGSLRLSCAASGSIFYDNAMGWSRQAPGKERELVASIRWSGDSTYYADSVKGRFTISRDNAKNTVYLQMNSLKPEDTAVYYCAADPVEPYFTAIAYDYWGQGTQVTVSS	low polyreactivity
QVQLVESGGGLVQAGGSLRLSCAASGRIFWTNDMGWYRQAPGKERELVAVISSDTGSTDYADSVKGRFTISRDNAKNTVYLQMNSLKPEDTAVFYCNKRGLSRVNYWGQGTQVTVSS	low polyreactivity
QVQLVESVGGLVQAGGSLRLSCAASGSIFFSYAMGWYRQAPGKERELVAGINWSGGSTYADSVKGRFTISRDNAKNTVYLQMNSLKPEDTAVYYCAAKYYSERSRYHYWGQGTQVTVSS	low polyreactivity
QVQLVESGGGLVQAGGSLRLSCAASGFTFYYYAMGWYRQAPGKERELVAAITKNGGRTFYADSVKGRFTISRDNAKNTVYLQMNSLKPEDTAVYYCATVGNWPDYYYWGQGTQVTVSS	high polyreactivity
QVQLVESGGGLVQAGGSLRLSCAASGRTFPYYAMGWYRQAPGKERELVAAISSSGGRTYYADSVKGRFTISRDNAKNTVYLQMISLKPEDSAVYDCNVDAWYPYQGFLVGYYYWGQGTQVTVSS	low polyreactivity
QVQLVESGGGLVQEGGSLRLSCAASGSIFSGYAMGWYRPAPGKERELVAAISSSGGSTYYADSVKGRFTISRDNAKNTVYLQMNSLKPEDTAFYYCAADARWLWVYGAYGGLDYWGQGTQVTLSS	low polyreactivity
QVQLVESGGGLVQAGGSLRLSCAASGSTFTYYAMGWYRQAPGKERELVAAINWDGGRTYYADSVKGRFTISRDNAKNTVYLQMNSLKPEDTAVYYCNAVGRYRSGFDYWGQGTQVTVSS	high polyreactivity
QVQLVESGGGLVQAGGSLRLSCAASGRTFGWYAMGWYRQAPGKERELVAAISSSDDSTYYADSVKGRFTISRDNAKNTVYLQMNSLKPEDTAVYYCAADGYPDPYKVRFGYWGQGTQVTVSS	low polyreactivity
QVQLVESGGGLVQAGGSLRLSCAASGSIFDIYAMGWYRQAPGKERELVAAISWNGGDTTYADSVKGRFTISRDNAKNTVYLQMNSLKPEDTAVYYCAADLGYWVADYYWGQGTQVTVSS	high polyreactivity
QVQLVESGGGLVQAGGSLRLSCAASGRIFVANGLGWYRQAPGKERELVAAITWSGDNTYYADSVKGRFTISRDNAKNTVYLQMNSLKPEDTAVYYCATPRSWYFPYGYWGQGTQVTVSS	high polyreactivity
QVQLVESGGGLVQAGGSLRLSCAASGNTFSSNAMGWYRQAPGKERELVAGITKSGGRTYYADSVKGRFTISRDNAKNTVSLQMNSLKPEDTAVYYCAAVGSTVFGTRYYYWGQGTQVTVSS	high polyreactivity
QVQLVESGGGLVQAGGSLRLSCAASGIIFGHYAMGWYRQAPGKERELVARITYSGTRTYYADSVKGRFTISRDNAKNTVYLQMNSLKPEDTAVYYCAAGYAYPRWVTAGNNWGQGTQVTVSS	high polyreactivity
QVQLVESGGGLVQAGGSLRLSCAASGITSVVYAMGWYRQAPGKERELVAAISSAGSTYYADSVKGRFTISRDNAKNTVYLQMNSLKPEDTAVYYCAAAGYPQTYLYYYWGQGTQVTVSS	low polyreactivity
QVQLVESGGGLVQAGGSLRLSCAASGNTFYGYAMGWYRQAPGKERELVAAIRGSDGITFYADSVKGRFTISRDNAKNTVYLQMNSLKPEDTAVYYCAKDTYRSPRHDYGYWGQGTQVTVSS	low polyreactivity

Sequence	polyreactivity (PSR sort gate)
QVQLVESGGGLVQAGGSLRLSCAASGRIFYRYAMGWYRQAPGKERELVAAITRGGRTNYADSVKGRFTISRDNAQNTVYLQMNSLKPEDTAVYYCRPLWYGFDYWGQGTQVTVSS	high polyreactivity
QVQLVESGGGLVQAGGSLRLSCAASGRIFIRYAMGWYRQAPGKERELVAGITSGGDTYYADSVKGRFTISRDNAKNTVYLQMNSLKPEDTAVYYCARVRYGRMDYWGQGTQVTVSS	high polyreactivity
QVQLEESRRGLVQARGSLRLSCASSGYIFLYYALGCYRQAPGKERELVAAITTRGGRTYYADSVKGRFTISRDNAKNTVYVQMNSLKPEDTAVYYCAVEVSWSYYSYGYWGQGTQVTVSS	low polyreactivity
QVQLVESGGGLVQAGGSLRLSCAASGFTFEYYAMGWYRQAPGKERELVAAIRSDSGTNYADSVKGRFTISRDNAKNTVYLQMNSLIPEDTAVYYCAAPTVVLIDYDYWGQGTQVTVSS	low polyreactivity
QVQLVESGGGLVQAGGSLRLSCAASGRTFPLYAMGWYRQAPGKERELVARINRGGSTYYADSVKGRFTISRDNAKNTVYLQMNSLKPEDTAVYYCNARHTWHQTYDYWGQGTQVTVSS	low polyreactivity
QVQLVESGGGLVQAGGSLRLSCAASGSIFPGNAMGWYRQAPGKERELVAVIDFSGASTYYADSVKGRFTISRDNAKNTVYLQMNSLKPEDTADYWGQGSQVTVSS	low polyreactivity
QVQLVESGGGLVQAGGSLRLSCAASGFIFKSYAMGWYRQAPGKERELVAAISGRGGSTYYADSVKGRFTISRDNAKNTVYLQMNSLKPEDTAVYYCNVVPSTYYQYDYWGQGTQVTVSS	high polyreactivity
QVQLVESGGCLVQAGGSLRLSCAASGFTIWPNAMGWYRQAPGKERELVAAINWSGGATYYADSVKGRFTISRDNAKNSVYLHMNSLKPEDTAVYYCAAFSYDWYGGDEYWGKGTQVTVSS	low polyreactivity
QVQLVESGGGLVQAGGSLRLSCAASGSTFGNYAMGWYRQAPGKERELVATISRSGGSTYYADSVQGRFTISRDIAKNTVNLQMNSLKPEDTAVYYCNRRYYTRKPDYNSWGQGTQVTVSS	high polyreactivity
QVQLVESGGGLVQAGGSLRLSCAASGRIFAYYAMGWYRQAPGKERELVATITDSGDDTYYADSVKGRFTISRDNAKNTVYLQMNSLKPEDTAVYYCNAVWRGWYPYWYDYWGQGTQVTVSS	low polyreactivity
QVQLVESGGGLVQAGGSLRLSCAACGSISVYNAMGWYRQAPGKERELVAAISWSGGRTSYADSVKGRFTISRDNAKNTVYLQMNSLKPEDTAVYYCAADELTVMWDEDYWGQGTQVTVSS	low polyreactivity
QVQLVESGGGLVQAGGSLRLSCAASGFIFWDNAMGWYRQAPGKERELVAAISRNGGRTYYADSVKGRFTISRDNAKNTVYLQMNSLKPEDTAVYYCAAYTARSYGMDYWGQGTQVTVSS	high polyreactivity
QVQLLETGGGLVQAGGSLRLSCAPSGRIFRQYVMGWSRQAPGKERELVAAISRSGGTTYYADSVKGRFTISRDNAKNTVYLQMNILKPEDTAVYYCAASFRGQIVGYWGQGTQVTLSS	high polyreactivity
QVQLVESGGGLVQAGGSLRLSCAASGRIFDDNTMGWSRQAPGKERELVAVITSGGSTNYADSVKGRFTISRDNAKNTVYLQMNSLKQEDTAVYYCATEPGGYRFADRPFQYGYWGQGTQVTVSS	low polyreactivity
QVQLVESGGGLVQAGGSLRLSCAASGIIFLNNAMGCYRQAPGKERELVAAITRTSTSTYYADSVKGRFTISRDNAKNTVYLQMNSLKPEDTAVYYSLVYWGQGTQVTVSS	low polyreactivity
QVQLVESGGGLVQAGGSLRLSCAASGFIFSYYAMGWYRQAPGKERELVAAISKTGGNTFYADSVKGRFTISRDNAKNTVYLQMNSLKPEDTGVYYCNALRGDWRDMGYWGQGTQVTVSS	high polyreactivity
